# Measured values from US9664676B2, “RNA sequences that induce fluorescence of small molecule fluorophores” (Cornell University, priority 2013, dated 2017).
# Assays:
# [1] = Thermostability measurements of Spinach RNAs with DFHBI; format: physicochemical; conditions: fluorescence of RNA-DFHBI complex in vitro, 20-60 °C; ±s.e.m.
# Procedure: Thermostability Measurements: Spinach or Spinach2 (1 μM) was incubated in 20 mM HEPES pH 7.4, 100 mM KCl, 1 mM MgCl2 and 10 μM DFHBI. Fluorescence values were recorded in 1° C. increments from 20° C. to 60° C., with a 5-min incubation at each temperature to allow for equilibration. Fluorescence measurements were performed using a PerkinElmer LS-55 fluorescence spectrometer using the following instrument parameters: excitation wavelength, 460 nm; emission wavelength, 501 nm; slit widths, 10 nm. Curves were fitted using the Boltzmann sigmoidal equation in GraphPad Prism 5 software. Values presented are mean and s.e.m. from three independent measurements.
# [2] = Folding assay (fraction of RNA folded, DFHBI); format: physicochemical
# Procedure: Folding Assay: The folding assay involves measurement of fluorescence under two conditions, one in which RNA is in excess relative to DFHBI, and one in which the DFHBI is in excess relative to RNA. As Spinach and DFHBI form a 1:1 stoichiometric complex, the maximum amount of complex that can be formed is determined by the limiting component. In the first condition, the fluorescence was determined by incubation of 0.1 μM DFHBI and 100-fold excess (10 μM) Spinach. This value was used to define the fluorescence of 0.1 μM Spinach-DFHBI complex. It was assumed that even if nearly all Spinach is misfolded or unfolded, there will be enough properly folded Spinach to stoichiometrically bind 0.1 μM DFHBI. This was confirmed by measuring fluorescence after doubling the RNA to 20 μM, which caused no increase in fluorescence. In the second condition, the fluorescence obtained using 10 μM DFHBI and 0.1 μM Spinach was measured. In theory, up to 0.1 μM Spinach-DFHBI can form if all the Spinach is folded. However, if a portion of Spinach is unfolded, the fluorescence will be proportionately less than the fluorescence of 0.1 μM Spinach-DFHBI. Thus, this approach can reveal the fraction of Spinach that is folded under diverse conditions.
# Fluorescence was measured for each RNA under the following conditions: (i) 0.1 μM RNA and 10 μM DFHBI, and (ii) 0.1 μM DFHBI and 10 μM RNA. For each condition, the signal from DFHBI without RNA was subtracted from each signal. Fluorescence was measured in 20 mM HEPES pH 7.4, 100 mM KCl and 1 mM MgCl2 at the designated temperature. Fluorescence measurements were performed using a PerkinElmer LS-55 fluorescence spectrometer using the following instrument parameters: excitation wavelength, 460 nm; emission wavelength, 501 nm; slit widths, 10 nm. Signal from the first condition (limiting RNA) was divided by the signal from the second condition (limiting dye) to determine the fraction folded.
# [3] = In vitro fluorescence (brightness) of Spinach RNAs, mutants and flanked/fused constructs with DFHBI; format: biochemical; conditions: for fold brighter than the same construct fused to Spinach: in vitro
# Excerpt: Preparation and Analysis of Spinach and Spinach Mutants: RNAs were created by using the appropriate single-stranded DNA templates (Integrated DNA Technologies) and PCR amplification using primers that included a 5′ T7 promoter sequence to generate double-stranded DNA templates. PCR products were then purified with PCR purification columns (Qiagen) and used as templates for in vitro T7 transcription reactions (Epicentre) as described previously (Paige et al., “RNA mimics of green fluorescent protein,” Science 333: 642-646 (2011), which is hereby incorporated by reference in its entirety). RNA was purified using ammonium acetate precipitation, and quantified using both absorbance values and the Riboquant Assay kit (BD Biosciences). Photophysical characterization of Spinach2 was carried out as previously described (Paige et al., “RNA mimics of green fluorescent protein,” Science 333: 642-646 (2011), which is hereby incorporated by reference in its entirety).
# Preparation and In Vitro Analysis of Flanked Spinach and Spinach2 Constructs: Spinach and Spinach2 constructs flanked on either side by 50 base pairs were generated by PCR. For Spinach, the following primers were used:
# The 50-base-pair sequences were taken from the human β-actin 3′ untranslated region. Both forward primers encode the T7 RNA polymerase promoter for in vitro transcription. 5S-Spinach and 5S-Spinach2 were amplified by PCR from pAV-5S-Spinach and pAV-5S-Spinach2, respectively, using the following primers: […]
# PCR products were used as templates for in vitro transcription by Ampliscribe T7 RNA polymerase as previously described (Paige et al., “RNA mimics of green fluorescent protein,” Science 333: 642-646 (2011), which is hereby incorporated by reference in its entirety). Fluorescence measurements were recorded for 0.1 μM RNA in the presence of 10 μM DFHBI in buffer composed of 20 mM HEPES pH 7.4, 100 mM KCl and […] as described above.
# Next, systematic mutagenesis was carried out to identify thermostable Spinach mutants with improved folding. Because elevated G+C content can lead to stable misfolded structures (Kiliszek et al., “Crystal Structures of CGG RNA Repeats with Implications for Fragile X-Associated Tremor Attaxia Syndrome,” Nuc. Acids Res. 39:7308-7315 (2011); Sobczak et al., “RNA Structure of Trinucleotide Repeats Associated with Human Neurological Diseases,” Nuc. Acids Res. 31:5469-5482 (2003), each of which is hereby incorporated by reference in its entirety), it was reasoned that decreasing the overall G+C content could promote proper folding. Scanning mutagenesis was carried out, mutating every […] and cytosine to adenosine or uracil, respectively. In regions where G and C residues were predicted to form a base pair, both residues were mutated to A and U, to maintain the complementarity. Each of these 35 mutants was synthesized in vitro, and the fraction folded was measured at 25° C. and 42° C. Fluorescence signals that were equal to or greater than Spinach at 25° C. indicated equal or greater percent folded. A higher percentage signal at 42° C. indicated improved thermostability relative to Spinach.
# E. coli = assay: Whole-cell fluorescence measurements of E. coli expressing Spinach or Spinach2; format: cell-based, Escherichia coli
# Procedure: Cloning Spinach2 for Expression in E. coli: Spinach and Spinach2 were PCR-amplified with primers containing the EagI restriction sites on both the 5′ and 3′ ends of the Spinach sequence.
# Whole-Cell Fluorescence Measurements of E. coli: BL21 cells were transformed to harbor either pET28c-tRNA-Spinach or pET28c-tRNA-Spinach2, and grown in Luria broth with 100 μg/ml kanamycin to OD600 0.4 at room temperature. The cells were then induced with addition of 1 mM IPTG for 2 h at room temperature. After induction, cells were normalized for cell density and split into two aliquots. One aliquot per sample was incubated at room temperature, and the other was incubated for 20 min at 37° C. Cells were then measured for total fluorescence using a Tecan Safirell plate reader with 460±10 nm excitation and emission was recorded at 510±10 nm. Data shown represent mean and s.e.m. values for three independent experiments.
# [4] = Magnesium dependence of aptamer fluorescence; format: physicochemical
# Procedure: To measure magnesium dependence 1 μM RNA was incubated with 10 μM 1T in 40 mM HEPES pH 7.4, 100 mM KCl buffer with different concentrations of MgCl2 and then fluorescence emission was measured on a plate reader.
molecule,measurement,setting,value
"Spinach2: RNA aptamer SEQ ID NO: 2; Spinach1.2 variant containing all six mutations (nucleic acid, listed as RNA, chemistry not given here, Spinach1.2 variant containing all six mutations) GAUGUAACUGAAUGAAAUGGUGAAGGACGGGUCCAGUAGGCUGCUUCGGCAGCCUACUUGUUGAGUAGAGUGUGAGCUCCGUAACUAGUUACAUC",melting temperature (Tm),[1],38±0.4 °C
same,percentage folded,"[2]; 25 °C, in the presence of the tRNA (tRNA^Lys3 scaffold)",80±6.1%
same,percentage folded,"[2]; 25 °C, no tRNA scaffold",58±4.8%
same,percentage folded,"[2]; 37 °C, in the presence of the tRNA (tRNA^Lys3 scaffold)",60±5.4%
same,percentage folded,"[2]; 37 °C, no tRNA scaffold",37±3.3%
same,fluorescence retained when fused to the CGG repeat-containing RNA,[3],80%
same,fold brighter than Spinach in vitro,[3]; 25 °C,1.8 fold
same,fold brighter than Spinach in vitro,[3]; 37 °C,2.8 fold
same,brightness of flanked RNA relative to the same aptamer alone,"[3]; flanked by 50 nt of RNA on both 5′ and 3′ ends, 0.1 μM RNA",90%
same,brightness of flanked Spinach2 versus flanked Spinach,[3]; flanked by 50 nt of RNA on both ends,tenfold brighter than flanked Spinach
same,fold brighter than the same construct fused to Spinach,[3]; fusion with 5S RNA,3 fold
same,fold brighter than the same construct fused to Spinach,[3]; fusion with 7SK RNA,6 fold
same,fold brighter than the same construct fused to Spinach,[3]; fusion with (CGG)60 RNA,20 fold
same,fluorescence retained by tagged Spinach2 relative to Spinach2 alone,"[3]; fusions with 5S, 7SK and (CGG)60 RNA, all cases",more than 70%
same,Percent Brightness (at 42° C.),[3]; percent of signal remaining at 42 °C for a given mutant,41%
same,Relative Brightness (at 25° C.),"[3]; relative to Spinach, 25 °C",1.8
same,fold brighter than Spinach in Escherichia coli,E. coli; 25 °C,1.4 fold
same,fold brighter than Spinach in Escherichia coli,E. coli; 37 °C,2.1 fold
same,percent of maximal fluorescence in magnesium-free buffer,"[4]; 1 μM RNA, 10 μM DFHBI-1T",11%
same,magnesium concentration giving maximal fluorescence,[4]; MgCl2 titration,~1 mM
same,percent of maximal fluorescence at ~300 μM magnesium,[4]; MgCl2 titration,50%
